Reference: patent publication US20240059770A1 (Eli Lilly, published 2024)

B1: Anti-Human Oxyntomodulin C-Terminal Antibody (antibody, V domains shown)
VH: QVQVQQSGAELVMPGTSVKLSCKASGYNFTNYWLHWVKQRPGQGLEWIGELDPEYGFANYNQKFKGKATLTVDKSSSTAYMQLSSLTSEDSAVYYCSAGFMDYWGQGTSVTVSS
VL: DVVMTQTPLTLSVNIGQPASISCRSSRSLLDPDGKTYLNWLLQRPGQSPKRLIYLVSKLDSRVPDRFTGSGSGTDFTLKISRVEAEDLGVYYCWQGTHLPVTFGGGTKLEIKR
notes: In SPR it was captured as IgG by goat anti-mouse IgG; In the sandwich immunoassay it was biotin-labelled and held on streptavidin plates; also called capture antibody
B2: Anti-Human Oxyntomodulin N-Terminal Antibody (antibody, V domains shown)
VH: QIQLVQSGPELKKPGETVKISCKASGYTFTDYAFSWVKQAPGKGLKWMGWITTNTGEATYADDFKGRFAFSLETSASTAYLQISNLKNEDTATYFCARETEYGDSSWFGHWGQGTLVTVSA
VL: DIVLTQSPASLAVSLGQRATISCRASESVDGWGNSFMHWYQQKPGQPPKLLIYLATYRVAGIPARFSGSGSRTDFTLTINPVEADDVATYYCMQSSEDPYTFGGGTKLEIKR
notes: In SPR it was captured as IgG by goat anti-mouse IgG; In the sandwich immunoassay it was ruthenium-labelled; also called detection antibody

Target: T1, human oxyntomodulin (53-89) (human)
T1 construct: also called synthetic human oxyntomodulin
T1 peptide: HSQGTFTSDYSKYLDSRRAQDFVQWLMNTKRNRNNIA
Experiment: SPR (Biacore T100), antibody captured by anti-mouse IgG, oxyntomodulin 1.1-90 nmol/L as analyte, 1:1 model
Method: Kinetic analysis and binding specificity of the N-Terminal Antibody and the C-Terminal Antibody are determined by surface plasmon resonance using Biacore T100 (GE Healthcare Life Sciences). Goat anti-mouse IgG antibody (Southern Biotech) is immobilized on a Series S CM5 sensor chip and used to capture approximately 1500 response units of anti-oxyntomodulin IgG. Binding to duplicate injections of various concentrations of human oxyntomodulin (SEQ ID NO: 25) (1.1 to 90 nmol/L) diluted in running buffer (HEPES buffered saline containing 3 mmol/L EDTA and 0.05% Tween) and 22.5 nmol/L of either human glicentin span (49-89) (SEQ ID NO: 29) or human glucagon (53-81) (SEQ ID NO: 30) peptides are measured with a flow rate of […]. Kinetic constants are determined using 1:1 binding model with the T100 Evaluation software.
Using Biacore analysis of the N-Terminal Antibody, the equilibrium dissociation constant is 1.5×10⁻¹⁰ mol/L (Table 2).

Binder | Kd [nM] | koff [s⁻¹] | kon [M⁻¹ s⁻¹]
B1 | 0.083 | 0.00086 | 1e+07
B2 | 0.15 | 0.001 | 7.2e+06
